For one substance, ave (RLU), vCJD BH results are on record in patent US20120027677A1.

The assay deals with PrP^Sc, pathogenic form of the human prion protein (from CJD brain homogenate) (human) (UniProt P04156).

Substance 3F4 antibody registered an ave (RLU), vCJD BH of 56.3 RLU.
